In PMC4533229 (Journal of Structural Biology, 2015):

B2: human LGR5 ectodomain variant (hLGR5_(ecto)), R32-S543 with the loop A488-H537 replaced by an NGNNGD linker (domain or fragment)
chain: ETGRGCPTHCHCEPDGRMLLRVDCSDLGLSELPSNLSVFTSYLDLSMNNISQLLPNPLPSLRFLEELRLAGNALTYIPKGAFTGLYSLKVLMLQNNQLRHVPTEALQNLRSLQSLRLDANHISYVPPSCFSGLHSLRHLWLDDNALTEIPVQAFRSLSALQAMTLALNKIHHIPDYAFGNLSSLVVLHLHNNRIHSLGKKCFDGLHSLETLDLNYNNLDEFPTAIRTLSNLKELGFHSNNIRSIPEKAFVGNPSLITIHFYDNPIQFVGRSAFQHLPELRTLTLNGASQITEFPDLTGTANLESLTLTGAQISSLPQTVCNQLPNLQVLDLSYNLLEDLPSFSVCQKLQKIDLRHNEIYEIKVDTFQQLLSLRSLNLAWNKIAIIHPNAFSTLPSLIKLDLSSNLLSSFPITGLHGLTHLKLTGNHALQSLISSENFPELKVIEMPYAYQCCAFGVCENNGNNGDSVQCSPSGT
notes: residues left by the vector pHLsec after removal of the signal peptide; human LGR5 ectodomain, R32 up to the residue before the replaced loop A488-H537; printed ends RGCPTH...FGVCEN; linker that replaces A488-H537; human LGR5 after the replaced loop; vector residues before the His10 tag; Cloned into pHLsec H10; not shown: His10, C-terminal, kept
B3: mouse R-spondin 2 Furin tandem repeat fragment (mRspo2_(Fu1-Fu2), I39-G144) (domain or fragment)
chain: ETGICKGCLSCSKDNGCSRCQQKLFFFLRREGMRQYGECLHSCPSGYYGHRAPDMNRCARCRIENCDSCFSKDFCTKCKVGFYLHRGRCFDECPDGFAPLDETMECVEGT
notes: residues left by the vector after removal of the signal peptide; mouse R-spondin 2, Fu1-Fu2, I39-G144; printed ends ICKGCL...MECVEG; vector residue before the His10 tag; not shown: His10, C-terminal, kept

Columns and labels:
[1] = molecular target: the molecule itself; assay: crystal structure; approximately stoichiometric amounts of the hLGR5_(ecto)–mRspo2_(Fu1-Fu2) complex and mZNRF3_(ecto) mixed in 10 mM Tris/HCl pH 9.0, 1000 mM NaCl, 1.3 mg/ml; crystals in 100 mM ammonium acetate, 600 mM NaCl, 50 mM MES pH 6.0, 5 mM MgSO4; 4.8 Å, anisotropic; 2:2:2 complex generated by crystallographic symmetry
[2] = molecular target: T1, hLGR5_(ecto)–mRspo2_(Fu1-Fu2) complex, formed beforehand by coexpression (human | mouse, UniProt O75473 32-487; Q8BFU0 39-144); assay: as above; conditions: both partners purified
T1 construct: as the chain of m1: vector residues; as the chain of m1: human LGR5 ectodomain, R32 up to the residue before the replaced loop A488-H537; printed ends RGCPTH...FGVCEN; as the chain of m1: linker that replaces A488-H537; as the chain of m1: human LGR5 after the replaced loop; as the chain of m1: vector residues before the His10 tag; as the chain of m2: vector residues; as the chain of m2: mouse …
T1 chain 1: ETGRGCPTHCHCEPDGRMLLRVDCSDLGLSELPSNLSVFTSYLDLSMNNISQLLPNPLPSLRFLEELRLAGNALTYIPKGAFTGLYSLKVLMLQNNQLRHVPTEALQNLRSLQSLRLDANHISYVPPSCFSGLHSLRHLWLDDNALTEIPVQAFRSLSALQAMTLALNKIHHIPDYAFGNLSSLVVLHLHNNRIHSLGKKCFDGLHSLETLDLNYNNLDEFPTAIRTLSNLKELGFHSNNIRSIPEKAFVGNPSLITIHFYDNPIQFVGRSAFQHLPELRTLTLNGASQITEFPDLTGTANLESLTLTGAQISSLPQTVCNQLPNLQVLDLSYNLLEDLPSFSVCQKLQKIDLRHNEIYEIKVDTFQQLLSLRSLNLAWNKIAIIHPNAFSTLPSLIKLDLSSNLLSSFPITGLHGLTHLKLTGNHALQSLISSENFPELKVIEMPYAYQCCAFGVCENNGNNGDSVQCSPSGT
T1 chain 2: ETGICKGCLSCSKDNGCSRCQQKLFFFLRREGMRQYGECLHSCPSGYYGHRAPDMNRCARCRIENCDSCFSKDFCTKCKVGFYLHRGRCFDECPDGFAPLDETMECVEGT

[3] = molecular target: B3; assay: crystal structure; hLGR5_(ecto)–mRspo2_(Fu1-Fu2) complex from coexpression, 5.9 mg/ml; sitting drop; 25% (w/v) PEG 3350, 200 mM lithium sulphate, 100 mM bis-Tris pH 5.5; 2.2 Å; two copies of the complex in the asymmetric unit; conditions: both partners purified
[4] = molecular target: the molecule itself; assay: as above
[5] = molecular target: B2; assay: as above; conditions: both partners purified

B1: mouse ZNRF3 ectodomain (mZNRF3_(ecto)) (domain or fragment, UniProt Q5SSZ7 53-216, looked up)
chain: KETAFVEVVLFESSPSGDYTTHTTGLTGRFSRAGAMLSAEGEIVQMHPLGLCNNNDEEDLYEYGWVGVVKLEQPELDPKPCLTVLGKAKRAVQRGATAVIFDVSENPEAIDQLNQGSEDPLKRPVVYVKGADAIKLMNIVNKQKVARARIQHLPPRQPTEYFDM
notes: mouse ZNRF3 ectodomain; chain C of PDB 4C99 was the search model; source: produced as described (Zebisch et al., 2013); large scale mammalian expression, purified
With B1 the “stoichiometry N” value [1] was 2 and the “stoichiometry N” value [2] was 1.

In the case of B2, the binding result [3] is reported as “binds” and the “stoichiometry N” value [4] is reported as 2.

With B3 the “stoichiometry N” value [5] was 1.
